From the supplement of paper PMC12042874
± gives the uncertainty stated by the source.

Experiment: amyloid nucleation score (Sup35N fusion, yeast selection) (log enrichment); library NNK2; higher = more nucleation; inactive = no reads after selection
How it was run: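 Peptides of 20 random codons, each fused to Sup35N, were expressed in psi-negative yeast. Cells were induced with 100 μM copper sulfate for 24 hours and grown 7 days at 30°C on medium lacking adenine and uracil, and plasmid inserts before and after selection were Illumina-sequenced. Nucleation scores are DiMSum log enrichments of output over input reads, centred on the mode score of non-aggregating sequences, and sequences under 100 input reads were excluded.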

Row | Substance | amyloid nucleation score
1 | NCYNMVYNCVPSEKAVKTCR | 0.264 ± 0.32
2 | GNYHFCRERGRVACW | -0.378 ± 1
3 | CYSMSRVVSNGEKHYD | 0.675 ± 0.4
4 | NSGCLSLGFRHLSNPWLHS | 2.71 ± 0.096
5 | WRRFRFLLPWSLRPMS | inactive
6 | ESLWMRTLMNVHYSDFRVTV | -0.174 ± 0.22
7 | LYHYPS | inactive
8 | DLLQREIDRSIVRLWIMEKG | 0.252 ± 0.49
9 | GYEASHSRFASSHLTPWGKR | 1.74 ± 0.32
10 | IRYDLQQGQFPPTRMECLVL | 0.437 ± 0.27
11 | RTFYFYGRHR | -1.11 ± 1.1
12 | KMLSWP | -0.412 ± 1.1
13 | SDCVTFATCWM | 0.096 ± 0.49
14 | FNLMSMIRNRH | -0.548 ± 0.79
15 | VRILYGS | 6.06 ± 0.082
16 | SFIGLETCQFSFHLIF | 4.15 ± 0.092
17 | RIVGDLICDVSSSQISTSHT | -0.291 ± 0.48
18 | HMAVNTTALAKNLITG | -0.401 ± 0.55
19 | TSFLPELRGLYGRAIVARNY | -1.39 ± 1.1
20 | GWGRLTY | 0.21 ± 0.74
21 | YFFRVSYVEFVRCFGFSCRW | -0.846 ± 0.41
22 | VLNEDVRGKANTVVSSMG | 0.413 ± 0.24
23 | LKWQSYG | 0.952 ± 0.28
24 | AVLLTMWYLNICTHIWVQTL | 0.139 ± 0.33
25 | KFWDLC | 0.047 ± 0.45
26 | AARVIGWAFVDWFCLSKG | inactive

Row | Substance | amyloid nucleation score
27 | ICLFDY | -2.02 ± 0.62
28 | SMDGSQDCTTKLNWSFHSVF | 3.88 ± 0.066
29 | TFLQPTLEVSLL | -0.612 ± 0.48
30 | HQDRERTRVPSIILFSLFTY | 1.71 ± 0.17
31 | TMSPCINASIFWDYA | 3.08 ± 0.05
32 | IGTEWVFVM | 0.17 ± 0.64
33 | FAIDMRYVGGQGCCILYIRR | 0.075 ± 0.44
34 | CFSNFVG | 0.746 ± 0.31
35 | AAGRDVARAFGSLVQKLGVG | 4.88 ± 0.097
36 | FLFTQGRLGGGYIVEYLCQL | 3.3 ± 0.15
37 | LHRYRNAQVSWE | -0.512 ± 0.74
38 | LLLPSAGKGSL | 0.219 ± 1
39 | LVLFCAFRVTLGFSQTLNSM | -0.003 ± 0.8
40 | ESKVAIA | -0.247 ± 0.24
41 | YTVLWRCTFTKARVFGCVSL | 0.414 ± 0.51
42 | PVGWSNRFRTMLPDS | 0.861 ± 0.48
43 | FSAEIRGTQRMLQRLSLYKR | 1.61 ± 0.092
44 | YSSYYHNFFRW | -0.277 ± 0.28
45 | TVYIYSLVSRNKEVMFFTD | inactive
46 | LLNDFRQLNTRYDSRWGQWQ | 3.08 ± 0.058
47 | VFDSPLHQWFYIKLIMLSTL | inactive
48 | DWKNYRMMHVEVWTACRILG | 0.734 ± 0.81
49 | IPRSPCDKENKSRHLHVAWA | -0.372 ± 0.45
50 | ASREWASSVVLW | 0.427 ± 0.29
51 | TSRWDWIINSVRHIYWFSCF | 4.26 ± 0.12
52 | WLVTAMSMLVCLPGYESLYW | 1.98 ± 0.21

Row | Substance | amyloid nucleation score
53 | IDDARRYCRQNRFTVSMGNC | -0.112 ± 0.54
54 | FNGSGARGSGRMYAILYKMS | 0.422 ± 0.56
55 | MIKYYVSHNPRWHSRWCNSQ | 0.762 ± 0.43
56 | KFRCASWLCRSTKAWRRCGA | 4.75 ± 0.049
57 | GVRKFLHPTTGPYMYTRCWA | 0.44 ± 0.45
58 | LSGFV | -0.554 ± 0.64
59 | IDLFVCAESMDRRGVTIPRS | 0.041 ± 0.35
60 | HHKLLGWFDVEKGMPVRLWA | 0.148 ± 0.43
61 | FYFKRQNNNDQVIVTHTT | -0.103 ± 0.61
62 | LKLFNGVRPKNGM | -1.6 ± 0.75
63 | DGLFGVTTWNSLFLWILKR | -1.1 ± 0.62
64 | YGDYMFHPETAVSL | 4.49 ± 0.064
65 | LISWFWWENLKLCCSIFCFI | 4.4 ± 0.051
66 | GFNLKVVVITTFDAFYYHAT | inactive
67 | RAFRKAGMYSYLSG | 3 ± 0.056
68 | CNGLAQKIILSTRRLLLVPG | 0.537 ± 0.34
69 | MELCYVILWYYIFSCGWWRS | inactive
70 | MPLQFDPVWFILNTLLRPHA | -0.228 ± 0.42
71 | VITSYVRRQCVKFCCGARCR | 8.347 ± 0.054
72 | WVHGIESSRWRFGL | -0.474 ± 1.1
73 | VDCWMSISCQDYDSKFKVKS | 0.242 ± 0.77
74 | WLSTVVL | inactive
75 | IICTSSPQLIVYTSVRS | 7.08 ± 0.042
76 | FGNALA | -1.15 ± 0.61
77 | CWSPLGTFSLLALMGASKTL | 0.103 ± 0.42
78 | IAAVDENCRVVCQIIFLSKV | inactive

Row | Substance | amyloid nucleation score
79 | AVKCVVEVTPWLDVKIKSFY | -0.735 ± 0.55
80 | VYELCCLYMWLGHSNYAADM | 5.33 ± 0.044
81 | GQYKTGVRGSRLNLPLMLTE | 0.328 ± 0.19
82 | VVEFNVLHDDLEVQDKT | -1.16 ± 0.56
83 | WVGAVKFFRSVKRQMSIYLE | inactive
84 | SMEAFYRGFFKTPWSY | -0.2 ± 0.29
85 | LCTTNSLF | -0.671 ± 0.38
86 | RIATLSFDSAIIQVYLRGSG | 7.028 ± 0.033
87 | PLQPTQTYPFNSVFDGHKRV | inactive
88 | FCLLIGLLFTYWLSINFAIT | inactive
89 | GLFCSLLCLVGAVSEKT | 5.26 ± 0.086
90 | RKKMGFF | inactive
91 | ATYNCVHRWGIFTSAYGSKC | -0.653 ± 0.56
92 | RSKMNRLMVLRSRVRWWYNE | 0.485 ± 0.32
93 | NICIN | inactive
94 | MDRWGLFMGYCIADHMIMFD | -0.416 ± 0.48
95 | AGMPCKFIRARSSPYFRALC | 0.495 ± 0.62
96 | CSQIRFGRADRLNETSIKLV | 0.333 ± 0.54
97 | FADTKDEGLYFGLMALLLEV | 0.016 ± 0.65
98 | KTCRFLCA | 0.176 ± 0.64
99 | EGQSGAILGLMRGTSWVESA | 0.984 ± 0.32
100 | VFVEVDVTGFNFRLE | -1.18 ± 0.48
101 | MIWPCMVP | -0.237 ± 1
102 | STLHQSIKTGDIFFDSGTFV | -0.889 ± 0.49
103 | YYSPYN | inactive
104 | ILYKYETLMLFLSSEYNVIC | 3.9 ± 0.039

Row | Substance | amyloid nucleation score
105 | TIAPGRRYENVNKGCERRFI | -1.76 ± 0.76
106 | WIMNKANNCKCFIEDTNWS | 7.352 ± 0.044
107 | DWQYRLKSVLVFRWQ | 3.5 ± 0.15
108 | FFSRTKYDSSRLKPWGMDIS | 0.523 ± 0.64
109 | LQMSGTSR | 0.265 ± 1.1
110 | DYAFRVYSGIPLKLSNS | -0.373 ± 0.65
111 | GIKHVCAWDIN | inactive
112 | TLHWK | -0.667 ± 0.33
113 | CHVFTSSSTRSLWTSDIIPS | 0.218 ± 0.48
114 | ALMDCACFVYSRD | -0.199 ± 1.1
115 | LISGRMHNVCEPGAKSRTLR | 0.76 ± 0.18
116 | RCFGFRVVRFVV | 0.014 ± 0.2
117 | HVGFHQKVRSELCRA | 0.087 ± 0.51
118 | CLQVAKDADFCIKAVEERGW | 2.42 ± 0.19
119 | SISLLMICCDL | 8.511 ± 0.04
120 | ECYDFYTWESYGLGCTSCEK | -0.01 ± 0.43
121 | HEPGFHYYCY | 2.43 ± 0.1
122 | RLDYNSSCQIFLFAGFMYLF | 3.23 ± 0.067
123 | VEMRLGRDEIFNRHQKGIYA | 2.02 ± 0.36
124 | MSPYLWYGWLEAGLLGIRTL | 0.871 ± 0.34
125 | FDWNVDDYTFIYDN | -2.38 ± 0.75
126 | CAVEVM | -0.724 ± 0.64
127 | VVRVLLVWMFLLTLWHHLVN | -0.158 ± 0.34
128 | FNTYVVNFSRRGDIVMAKR | 6.59 ± 0.085
